Laboratory results published in article PMC10381965.

B1: CENP-A^END-1 peptide (peptide)
peptide: Ac-DASINDRALSLLQRTRATDAW-NH2
B2: CENP-A^END-2-R37A peptide (peptide)
peptide: Ac-AGDQQSINDAALSLLQRTRATKNW-NH2
B3: CENP-A^END-3 peptide (peptide)
peptide: Ac-AGDQQSINDRALSLLQRTRATKNLFPRREERRRW-NH2
B4: CENP-A^END-2 peptide (peptide)
peptide: Ac-AGDQQSINDRALSLLQRTRATKNW-NH2

Molecular target: CENP-ΔQU complex (CENP-Q^1–294 and CENP-U^30–266) (S. cerevisiae) (UniProt P53298)
Test: ITC; CENP-A^END peptides (0.87 to 2.18 mM) titrated into CENP-QU (66 to 180 μM) in the cell; 20°C; 20 mM Hepes pH 7.5, 100 mM NaCl, 1 mM TCEP; single-site binding model; triplicate

| Binder | Kd | fold reduction of affinity against the unchanged CENP-A^END peptide |
| --- | --- | --- |
| B1 | 11500 nM |  |
| B2 |  | 15 fold |
| B3 | 720 nM |  |
| B4 | 1000 nM |  |
